From US20250136688A1 (Janssen / Centocor, published 2025)

Experiments:
Human CD3 epsilon [1] = molecular target: T1, Human CD3 epsilon (human, UniProt P07766 23-207); assay: flow cytometry on T cells of healthy human donor 888668965
T1 construct: Stood on human T cells (pan-T cells, isolated donor T cells) as part of the TCR/CD3 complex; the other chains of the complex are not written here; also called CD3ε; CD3R

Human CD3 epsilon [2] = molecular target: T1, Human CD3 epsilon; assay: flow cytometry on T cells of healthy human donor 110042593
Human CD3 epsilon [3] = molecular target: T1, Human CD3 epsilon; assay: flow cytometry on T cells of healthy human donor 110042496
[4] = molecular target: T2, ectonucleotide pyrophosphatase/phosphodiesterase family member 3 (ENPP3) (human, UniProt O14638 1-875); assay: cell-based or functional assay
T2 sequence (looked up): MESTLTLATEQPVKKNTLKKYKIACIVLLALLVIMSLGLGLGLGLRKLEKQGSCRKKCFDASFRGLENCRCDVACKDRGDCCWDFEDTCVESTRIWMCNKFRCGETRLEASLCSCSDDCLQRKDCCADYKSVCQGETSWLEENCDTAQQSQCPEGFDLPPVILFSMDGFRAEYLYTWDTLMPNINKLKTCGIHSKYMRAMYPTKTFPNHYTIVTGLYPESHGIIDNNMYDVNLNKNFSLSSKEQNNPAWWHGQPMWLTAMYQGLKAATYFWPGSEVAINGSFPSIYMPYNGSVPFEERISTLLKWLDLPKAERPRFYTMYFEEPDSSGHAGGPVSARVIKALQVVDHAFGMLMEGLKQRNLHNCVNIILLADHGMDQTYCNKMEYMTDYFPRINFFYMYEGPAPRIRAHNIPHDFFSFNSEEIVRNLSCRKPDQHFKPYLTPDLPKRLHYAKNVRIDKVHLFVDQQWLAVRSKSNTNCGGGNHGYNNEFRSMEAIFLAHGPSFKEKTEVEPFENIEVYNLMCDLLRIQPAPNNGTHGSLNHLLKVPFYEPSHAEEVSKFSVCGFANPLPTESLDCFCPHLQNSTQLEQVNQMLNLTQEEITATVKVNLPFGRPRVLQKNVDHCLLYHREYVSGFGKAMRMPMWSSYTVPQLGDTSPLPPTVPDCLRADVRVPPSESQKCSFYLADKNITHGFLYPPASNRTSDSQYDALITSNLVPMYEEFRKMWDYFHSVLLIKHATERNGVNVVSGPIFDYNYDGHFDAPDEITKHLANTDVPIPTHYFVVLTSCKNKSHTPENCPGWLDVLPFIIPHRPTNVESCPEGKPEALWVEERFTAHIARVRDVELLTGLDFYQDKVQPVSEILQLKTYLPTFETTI

[5] = molecular target: T2, ectonucleotide …; assay: flow cytometry on CHO ENPP3 OE cells
[6] = molecular target: ectonucleotide pyrophosphatase/phosphodiesterase family member 2 (ENPP2) (human, UniProt Q13822 36-863); assay: flow cytometry on CHOK1 cells overexpressing ENPP2
cyno ENPP3 = molecular target: T3, cyno ENPP3 (cynomolgus monkey, UniProt A0A2K5TKP4 1-874); assay: cell-based or functional assay
T3 sequence: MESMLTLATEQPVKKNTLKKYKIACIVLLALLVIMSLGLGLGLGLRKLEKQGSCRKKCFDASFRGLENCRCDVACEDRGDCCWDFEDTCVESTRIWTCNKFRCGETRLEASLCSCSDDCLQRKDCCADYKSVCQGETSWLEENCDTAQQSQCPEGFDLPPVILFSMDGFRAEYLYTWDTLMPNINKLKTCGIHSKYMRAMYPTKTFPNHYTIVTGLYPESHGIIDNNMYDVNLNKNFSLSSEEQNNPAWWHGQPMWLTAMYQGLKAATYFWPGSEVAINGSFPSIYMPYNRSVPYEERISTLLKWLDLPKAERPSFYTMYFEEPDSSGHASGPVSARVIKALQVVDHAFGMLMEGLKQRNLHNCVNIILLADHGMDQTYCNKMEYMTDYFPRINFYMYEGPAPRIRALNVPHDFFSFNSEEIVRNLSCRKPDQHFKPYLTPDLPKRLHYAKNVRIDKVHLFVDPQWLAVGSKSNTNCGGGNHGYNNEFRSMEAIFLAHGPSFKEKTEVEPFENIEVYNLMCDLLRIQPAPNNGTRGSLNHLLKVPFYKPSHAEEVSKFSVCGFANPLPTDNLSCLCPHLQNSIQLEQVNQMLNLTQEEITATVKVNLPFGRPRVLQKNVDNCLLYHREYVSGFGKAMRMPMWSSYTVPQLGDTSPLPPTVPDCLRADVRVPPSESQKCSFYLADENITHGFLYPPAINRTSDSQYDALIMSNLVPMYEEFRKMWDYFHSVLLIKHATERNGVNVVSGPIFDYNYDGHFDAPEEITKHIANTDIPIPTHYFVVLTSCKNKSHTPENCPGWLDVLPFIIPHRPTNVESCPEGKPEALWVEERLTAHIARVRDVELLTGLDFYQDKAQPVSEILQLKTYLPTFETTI

T1 sequence (P07766 23-207 limits assumed): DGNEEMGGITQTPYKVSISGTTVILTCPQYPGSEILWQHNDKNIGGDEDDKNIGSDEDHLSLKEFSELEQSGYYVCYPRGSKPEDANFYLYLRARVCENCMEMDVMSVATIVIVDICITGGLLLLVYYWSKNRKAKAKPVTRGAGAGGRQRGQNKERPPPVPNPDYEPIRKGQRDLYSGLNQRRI

B1: NPP3B815 (NPP3B56×CD3B2030-N106A-spFv) (bispecific antibody, human IgG1, kappa, L234A L235A)
chain: EIVLTQSPATLSASPGERVTLSCSASSSVSYMNWYQQKPGCAPRRWIYDSSKLASGVPARFSGSGSGRDYTLTISSLEPEDFAVYYCQQWSRNPPTFGGGTKVEIKGGGSGGSGGCPPCGGSGGQVQLVQSGAEVKKPGSSVKVSCKASGYTFTRSTMHWVKQAPGQGLEWIGYINPSSAYTNYNQKFQGRVTLTADKSTSTAYMELSSLRSEDTAVYYCASPQVHYDYAGFPYWGCGTLVTVSSEPKSSDKTHTCPPCPAPEAAGGPSVFLFPPKPKDTLMISRTPEVTCVVVSVSHEDPEVKFNWYVDGVEVHNAKTKPREEQYNSTYRVVSVLTVLHQDWLNGKEYKCKVSNKALPAPIEKTISKAKGQPREPQVYTLPPSREEMTKNQVSLWCLVKGFYPSDIAVEWESNGQPENNYKTTPPVLDSDGSFFLYSKLTVDKSRWQQGNVFSCSVMHEALHNHYTQKSLSLSPGK
heavy: EVQLVESGGGRVKPGGSLRLSCAASGFTFSDYSMNWVRQAPGKGLEWVSSISSISSYVKYADSVKGRFTMSRDNAKNSLFLQMNSLRDEDMAVYYCARGHYFDYWGQGTLVTVSSASTKGPSVFPLAPSSKSTSGGTAALGCLVKDYFPEPVTVSWNSGALTSGVHTFPAVLQSSGLYSLSSVVTVPSSSLGTQTYICNVNHKPSNTKVDKKVEPKSCDKTHTCPPCPAPEAAGGPSVFLFPPKPKDTLMISRTPEVTCVVVSVSHEDPEVKFNWYVDGVEVHNAKTKPREEQYNSTYRVVSVLTVLHQDWLNGKEYKCKVSNKALPAPIEKTISKAKGQPREPQVYTLPPSREEMTKNQVSLSCAVKGFYPSDIAVEWESNGQPENNYKTTPPVLDSDGSFFLVSKLTVDKSRWQQGNVFSCSVMHEALHNRFTQKSLSLSPGK
light: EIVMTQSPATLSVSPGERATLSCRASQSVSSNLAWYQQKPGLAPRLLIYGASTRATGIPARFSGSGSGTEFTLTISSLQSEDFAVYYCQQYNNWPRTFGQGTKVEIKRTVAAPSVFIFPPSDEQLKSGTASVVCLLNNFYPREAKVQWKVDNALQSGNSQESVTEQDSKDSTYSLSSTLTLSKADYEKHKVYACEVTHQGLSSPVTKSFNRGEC
notes: Heavy Chain 1 = anti-CD3 spFv-Fc (knob); Heavy Chain 2 and Light Chain = anti-ENPP3 Fab arm NPP3B56 (hole); IgG1 with L234A, L235A, D265S; also called ENPP3×CD3
EC50 (Human CD3 epsilon [1]): 197 nM
EC50 (Human CD3 epsilon [2]): 146 nM
EC50 (Human CD3 epsilon [3]): 147 nM
killing EC50 @ 72 hrs, A704, T-cell donor 110040278, E:T 1:1 [4]: 0.075 nM
killing EC50 @ 72 hrs, A704, T-cell donor 110040278, E:T 3:1 [4]: 0.0484 nM
killing EC50 @ 72 hrs, A704, T-cell donor 110042496, E:T 1:1 [4]: 0.132 nM
killing EC50 @ 72 hrs, A704, T-cell donor 110042496, E:T 3:1 [4]: 0.0696 nM
killing EC50 @ 72 hrs, A704, T-cell donor 110042593, E:T 1:1 [4]: 0.114 nM
killing EC50 @ 72 hrs, A704, T-cell donor 110042593, E:T 3:1 [4]: 0.0336 nM
killing EC50 @ 72 hrs, A704, T-cell donor 110044049, E:T 3:1 [4]: 0.0524 nM
killing EC50 @ 72 hrs, A704, T-cell donor 888668965, E:T 3:1 [4]: 0.0454 nM
killing EC50 @ 72 hrs, VMRCRCW, T-cell donor 110040278, E:T 1:1 [4]: 0.243 nM
killing EC50 @ 72 hrs, VMRCRCW, T-cell donor 110040278, E:T 1:3 [4]: 0.456 nM
killing EC50 @ 72 hrs, VMRCRCW, T-cell donor 110040278, E:T 3:1 [4]: 0.0923 nM
killing EC50 @ 72 hrs, VMRCRCW, T-cell donor 110042496, E:T 1:1 [4]: 0.465 nM
killing EC50 @ 72 hrs, VMRCRCW, T-cell donor 110042496, E:T 3:1 [4]: 0.128 nM
killing EC50 @ 72 hrs, VMRCRCW, T-cell donor 110042593, E:T 1:1 [4]: 0.225 nM
killing EC50 @ 72 hrs, VMRCRCW, T-cell donor 110042593, E:T 3:1 [4]: 0.0795 nM
killing EC50 @ 72 hrs, VMRCRCW, T-cell donor 110044049, E:T 1:1 [4]: 0.151 nM
killing EC50 @ 72 hrs, VMRCRCW, T-cell donor 110044049, E:T 1:3 [4]: 0.226 nM
killing EC50 @ 72 hrs, VMRCRCW, T-cell donor 110044049, E:T 3:1 [4]: 0.115 nM
killing EC50 @ 72 hrs, VMRCRCW, T-cell donor 110048457, E:T 1:1 [4]: 0.177 nM
killing EC50 @ 72 hrs, VMRCRCW, T-cell donor 110048457, E:T 1:3 [4]: 0.276 nM
killing EC50 @ 72 hrs, VMRCRCW, T-cell donor 110048457, E:T 3:1 [4]: 0.372 nM
killing EC50 @ 72 hrs, VMRCRCW, T-cell donor 888668965, E:T 1:1 [4]: 0.273 nM
killing EC50 @ 72 hrs, VMRCRCW, T-cell donor 888668965, E:T 1:3 [4]: 0.469 nM
killing EC50 @ 72 hrs, VMRCRCW, T-cell donor 888668965, E:T 3:1 [4]: 0.156 nM
killing EC50 @ 120 hrs, A704, T-cell donor 110040278, E:T 1:1 [4]: 0.041 nM
killing EC50 @ 120 hrs, A704, T-cell donor 110040278, E:T 1:3 [4]: 0.149 nM
killing EC50 @ 120 hrs, A704, T-cell donor 110042496, E:T 1:1 [4]: 0.073 nM
killing EC50 @ 120 hrs, A704, T-cell donor 110042496, E:T 1:3 [4]: 0.191 nM
killing EC50 @ 120 hrs, A704, T-cell donor 110042593, E:T 1:1 [4]: 0.048 nM
killing EC50 @ 120 hrs, A704, T-cell donor 110042593, E:T 1:3 [4]: 0.106 nM
killing EC50 @ 120 hrs, A704, T-cell donor 110044049, E:T 1:1 [4]: 0.125 nM
killing EC50 @ 120 hrs, A704, T-cell donor 888668965, E:T 1:3 [4]: 0.163 nM
killing EC50 @ 120 hrs, VMRCRCW, T-cell donor 110040278, E:T 1:1 [4]: 0.264 nM
killing EC50 @ 120 hrs, VMRCRCW, T-cell donor 110040278, E:T 1:3 [4]: 0.332 nM
killing EC50 @ 120 hrs, VMRCRCW, T-cell donor 110042496, E:T 1:1 [4]: 0.454 nM
killing EC50 @ 120 hrs, VMRCRCW, T-cell donor 110042496, E:T 1:3 [4]: 0.5 nM
killing EC50 @ 120 hrs, VMRCRCW, T-cell donor 110042593, E:T 1:1 [4]: 0.218 nM
killing EC50 @ 120 hrs, VMRCRCW, T-cell donor 110042593, E:T 1:3 [4]: 0.485 nM
killing EC50 @ 120 hrs, VMRCRCW, T-cell donor 110044049, E:T 1:1 [4]: 0.216 nM
killing EC50 @ 120 hrs, VMRCRCW, T-cell donor 110044049, E:T 1:3 [4]: 0.337 nM
killing EC50 @ 120 hrs, VMRCRCW, T-cell donor 110048457, E:T 1:1 [4]: 0.21 nM
killing EC50 @ 120 hrs, VMRCRCW, T-cell donor 110048457, E:T 1:3 [4]: 0.267 nM
killing EC50 @ 120 hrs, VMRCRCW, T-cell donor 888668965, E:T 1:1 [4]: 0.345 nM
killing EC50 @ 120 hrs, VMRCRCW, T-cell donor 888668965, E:T 1:3 [4]: 0.379 nM
EC50 [5]: 0.51 nM
binding result [6]: no binding
Cytotox. EC50, human T cells, HepG2-KO cyno ENPP3-OE cells, E:T 3:1 (cyno ENPP3): 0.079 nM
T-cell activation EC50, human T cells, HepG2-KO cyno ENPP3-OE cells, E:T 3:1 (cyno ENPP3): 0.023 nM
